Experimental data from publication PMC12018189, “ATP synthesis of Enterococcus hirae V-ATPase driven by sodium motive force” (The Journal of Biological Chemistry, 2025).

Experiments:
purified protein = substrate: O=P(O)(O)O; test: purified protein; settings: ATP synthesis direction, 0.5 mM ADP, 5 mM MgCl2, pH 7.0, 25 °C, smf 269.3 mV (Δψ 154.7 mV, ΔpNa 114.6 mV)
[1] = substrate: Nc1ncnc2c1ncn2[C@@H]1O[C@H](COP(=O)(O)OP(=O)(O)O)[C@@H](O)[C@H]1O; test: luciferin/luciferase luminescence assay of ATP synthesis, proteoliposomes; assay type: biochemical, Enterococcus hirae; settings: ATP synthesis direction, 74 mM Pi, 5 mM MgCl2, pH 7.0, 25 °C, smf 269.3 mV (Δψ 154.7 mV, ΔpNa 114.6 mV)
From the text: luciferin/luciferase luminescence assay of ATP synthesis, proteoliposomes on EhVoV1 (Enterococcus hirae V-ATPase)

B1: EhVoV1 (Enterococcus hirae V-ATPase) (Enterococcus hirae ATCC 9790) (protein)
chain 1: MQIGKIIKVSGPLVMAENMSEASIQDMCLVGDLGVIGEIIEMRQDVASIQVYEETSGIGPGEPVRSTGEALSVELGPGIISQMFDGIQRPLDTFMEVTQSNFLGRGVQLPALDHEKQWWFEATIEEGTEVSAGDIIGYVDETKIIQHKIMVPNGIKGTVQKIESGSFTIDDPICVIETEQGLKELTMMQKWPVRRGRPIKQKLNPDVPMITGQRVIDTFFPVTKGGAAAVPGPFGAGKTVVQHQIAKWSDVDLVVYVGCGERGNEMTDVVNEFPELIDPNTGESLMERTVLIANTSNMPVAAREASIYTGITIAEYFRDMGYDVAIMADSTSRWAEALREMSGRLEEMPGDEGYPAYLGSRLAEYYERSGRVIALGSDQREGSITAISAVSPSGGDISEPVTQNTLRVVKVFWGLDSSLAQKRHFPSINWIQSYSLYSTEVGRYMDQILQQDWSDMVTEGMRILQEEEQLNEIVRLVGIDSLSDNDRLTLEVAKSIREDYLQQNAFDDVDTFTSREKQFNMLKVILTFGKEARKALSLGAYFNEIMEGTVAVRERISRSKYIPEEELAKISSINEEIKETIQLIVSEGGMTDD
chain 2: MIKEYRTIKEVVGPLMAVEKVSGVKYEELIEVRMQNGEIRRGQVLEVQEDKAMVQIFEGTSGINLKNSSVRFLGHPLQLGVSEDMIGRVFDGLGRPKDNGPEILPEKYLDINGEVINPIARDYPDEFIQTGISAIDHLNTLVRGQKLPVFSGSGLPHKELAAQIARQATVLDSSDDFAVVFAAIGITFEEAEFFMEDFRQTGAIDRSVMFMNLANDPAIERIATPRMALTAAEYLAYEKGMHVLVIMTDMTNYAEALREISAARREVPGRRGYPGYLYTNLATLFERAGRIRGLKGSVTQIPILTMPEDDKTHPIPDLTGYITEGQIILTRELYKSGIQPPIDVLPSLSRLKDKGTGAGKTREDHAATMNQLFAAYAQGKQAKELAVVLGESALSDIDKIYAKFAERFENEYVNQGFYTNRTITETLDLGWELLAMLPRTELKRIKDDLLDKYLPEGK
notes: whole VoV1 complex, His tags on c-subunits, expressed in E. coli C41(DE3), DDM-solubilised, Ni-NTA and size exclusion, reconstituted into soybean phosphatidylcholine liposomes; with V-type sodium ATPase subunit D; V-type sodium ATPase subunit G; V-type sodium ATPase subunit E; V-type sodium ATPase subunit F; V-type sodium ATPase subunit C; V-type sodium ATPase subunit I; V-type sodium ATPase …
Km (purified protein): 2100 ± 200 µM
kcat (purified protein): 4.7 s⁻¹
Km [1]: 21 ± 2 µM
kcat [1]: 4.7 s⁻¹
